IntAct's records for PubMed 21890701

B1: Flagellar motor switch protein FliG (Escherichia coli (strain K12)), P0ABZ1 (parent)
chain: MSNLTGTDKSVILLMTIGEDRAAEVFKHLSQREVQTLSAAMANVTQISNKQLTDVLAEFEQEAEQFAALNINANDYLRSVLVKALGEERAASLLEDILETRDTASGIETLNFMEPQSAADLIRDEHPQIIATILVHLKRAQAADILALFDERLRHDVMLRIATFGGVQPAALAELTEVLNGLLDGQNLKRSKMGGVRTAAEIINLMKTQQEEAVITAVREFDGELAQKIIDEMFLFENLVDVDDRSIQRLLQEVDSESLLIALKGAEQPLREKFLRNMSQRAADILRDDLANRGPVRLSQVENEQKAILLIVRRLAETGEMVIGSGEDTYV
partner: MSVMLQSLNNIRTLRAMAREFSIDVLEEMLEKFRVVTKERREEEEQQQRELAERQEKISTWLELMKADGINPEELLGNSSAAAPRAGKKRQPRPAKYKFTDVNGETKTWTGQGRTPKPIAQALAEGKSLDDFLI
B2: Flagellar motor switch protein FliG (Escherichia coli (strain K12)), P0ABZ1 (parent)
chain: B1 chain
partner: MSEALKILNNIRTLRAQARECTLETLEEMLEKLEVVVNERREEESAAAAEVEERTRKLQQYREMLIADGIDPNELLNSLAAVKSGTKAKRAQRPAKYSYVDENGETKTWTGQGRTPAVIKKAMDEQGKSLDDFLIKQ
B3: DNA-binding protein H-NS (Escherichia coli (strain K12)), P0ACF8 (parent)
chain: B2 partner
partner: B1 chain

Variants of: B1
Conditions: with stpa_ecoli stpA

Variant | effect of a mutation on the interaction
E125W | disrupting interaction strength
H126W | disrupting interaction strength
R160W | disrupting interaction strength

Variants of: B2
Conditions: with hns_ecoli hns, P0ACF8

Variant | effect of a mutation on the interaction
E125W | decreasing interaction strength
H126W | disrupting interaction strength
Q128W | decreasing interaction strength
R160W | disrupting interaction strength

Variants of: B3
Conditions: with flig_ecoli fliG, P0ABZ1

Variant | effect of a mutation on the interaction
Q112D | decreasing interaction
G113D | decreasing interaction strength
R114W | decreasing interaction strength
